Reference: paper PMC6607443 (2019)

Biological target: dynein light chain LC8 (UniProt P63167 1-89)
Assay: ITC

Sequence of dynein light chain LC8 (P63167 whole entry): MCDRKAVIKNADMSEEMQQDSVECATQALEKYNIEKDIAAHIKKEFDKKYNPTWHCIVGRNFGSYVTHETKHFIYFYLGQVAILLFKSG

| Binder | Kd [nM] |
| --- | --- |
| SEIHGISRMTQTPQ [RavL peptide] | 8000 |
| YGCTRHQSVQTEDG [MAST1 peptide] | 1700 |
| PAPPSYSDKGVQTPSK [ZFPM1 peptide] | 1600 |
| PRATAEFSTQTPSP [bassoon (BSN) peptide, modified version with the TQT motif near the C-terminus] | 6300 |
| ARAGRSVSTQTGSM [CIZ1 peptide] | 800 |
| QDFMKHLDKKTQTPKL [CCL7 peptide] | 2800 |
| PVLTSATGTQTSPA [MUC3A peptide] | 4500 |
| NQSFTTASTQTPPQ [CAPRIN2 peptide] | 2600 |
| HPETQDSSTQTDTS [SPAG5 peptide] | 1300 |
| YDSMDHLDKQTQTPKT [CCL2 peptide] | 4700 |
| SSSTRSIDTQTPSV [GLCCI1 peptide] | 4900 |
| EKELRHIGTQISSD [ICE1 peptide] | 3600 |
| APMSCDKSTQTPSP [BCL2L11 peptide] | 200 |
| DDHSREKGTQTSGD [SLC9A2 peptide] | 2200 |
